Biological target: recombinant human CD30L protein (human) (UniProt P32971)
Experiment: ELISA

Sequence of recombinant human CD30L protein (human) (P32971 63-234 limits assumed): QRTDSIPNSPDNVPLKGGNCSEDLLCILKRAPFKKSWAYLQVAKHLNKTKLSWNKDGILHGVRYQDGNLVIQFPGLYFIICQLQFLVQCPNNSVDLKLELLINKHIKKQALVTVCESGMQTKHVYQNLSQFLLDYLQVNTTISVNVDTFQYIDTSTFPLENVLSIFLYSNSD

OD: 0.06 OD
B1: Clone 59 (antibody, V domains shown)
VH: QVQLVESGGGVVQPGRSLRLSCAASGFTFSIYGMHWVRQAPGKGLEWVAVIWYDGSNKYYVDSVKGRFTISRDNSKNSLYLQMNSLRAEDTAVYYCAREGNLFDYWGQGTLVTVSS
VL: DIQMTQSPSTLSASVGDRVTITCRASQSISSWLAWYQQKPGKAPKLLIYKASSLESGVPSRFSGSGSGTEFTLTISSLKPDDFATYYCQQYKSYYTFGQGTKLEIK
